This is an account of results in patent US8759300 (RESEARCH FOUNDATION FOR THE STATE UNIVERSITY OF NEW YORK, dated 2014).

B2: EGF (ligand, UniProt P01133 971-1023, looked up)
chain: NSDSECPLSHDGYCLHDGVCMYIEALDKYACNCVVGYIGERCQYRDLKWWELR
B3: IIICS, variably-spliced domain of fibronectin (other, human)
chain: MGSDELPQLVTLPHPNLHGPEILDVPSTVQKTPFVTHPGYDTGNGIQLPGTSGQQPSVGQQMIFEEHGFRRTTPPTTATPIRHRPRPYPPNVGEEIQIGHIPREDVDYHLYPHGPGLNPNASTTSHHHHHHC
notes: domain: IIICS; The IIICS construct is not described separately

Assay [1] addresses T1, basic fibroblast growth factor (bFGF, FGF-2) (human, UniProt P09038 143-288, limits assumed). Nature of the assay: peptide binding to the GF.
The target of the assay “EGF” is B2. Nature of the assay: equilibrium and kinetic binding.
Another assay addresses TGF-α (UniProt P01135 40-89). Description: equilibrium and kinetic binding.
In the next assay the target is FGF-1 (UniProt P05230 16-155, limits assumed). Nature of the assay: equilibrium and kinetic binding.
The target in assay [2] is T2, intact human plasma fibronectin (FN) (human, UniProt P02751 32-2477).
T2 construct: Adsorbed to plastic or coupled to agarose beads in the assays; The background calls plasma FN a disulfide-linked dimer; also called intact FN
Nature of the assay: competition: I-125 TGF-β1 bound to intact human plasma FN adsorbed on plastic (0.125 µM, blocked with 2% BSA), 25°C, 2 h, with rising peptide; % of binding without peptide, n=3 [left panel]. As for the experimental part: (§1) Figure 9: FIG. 9. Inhibition of TGF-β1 and PDGF-BB binding to intact human plasma FN with TGF-β1 and PDGF-BB FN-binding peptides, respectively. FN was adsorbed onto tissue culture plastic at a concentration of 0.125 μM and then excess protein-binding sites of the plastic blocked with 2% bovine serum albumin. Growth factor labeled with I^125 was incubated with FN-coated plates at 25° C. for 2 hours in the presence or absence of peptide. Data was calculated as [(GF binding in presence of peptide–background)/(GF binding in absence of peptide-background)]×100. n=3.
(§2) Two of these synthetic peptides (homologous to TGF-β1 and homologous to PDGF-BB) inhibit TGF-β1 and PDGF-BB binding to FN respectively (FIG. 9). Inhibition of TGF-β1 and PDGF-BB binding to intact human plasma FN was determined as follows. FN was adsorbed onto tissue culture plastic at a concentration of 0.125 μM and then excess protein-binding sites of the plastic blocked with 2% bovine serum albumin. Growth factor labeled with I^125 was incubated with FN-coated plates at 25° C. for 2 hours in the presence or absence of peptide. For example, relative binding of TGF-β1 to immobilized FN was determined for increasing concentrations of the synthetic peptide homologous to TGF-β1. […] For example, relative binding of PDGF-BB to immobilized FN was determined for increasing concentrations of the synthetic peptide homologous to PDGF-BB. […]

Assay [3] has as its target T3, FNIII12-V15 (HV), composite heparinII-binding and variably-spliced IIICS domains of fibronectin (human, UniProt P02751 1812-2288).
T3 construct: domain: FNIII12-V15; Recombinant, from E. coli; Some constructs carry GST at the C-terminus
Nature of the assay: plasmon resonance modulation.

Assay [4] deals with T4, FN70, the 70 kDa amino terminus of fibronectin (UniProt P02751 32-608, limits assumed).
T4 construct: domain: FN70 (70 kDa amino terminus); also called amino-terminal end of FN
Description: equilibrium and kinetic binding.

In assay [5] the target is T5, FNIII8-11 (C), classic cell-binding domain of fibronectin containing RGD (human, UniProt P02751 1358-1721).
T5 construct: domain: FNIII8-11; Recombinant
Description: equilibrium and kinetic binding.

Another assay has as its target T6, FNIII1-7 (human, UniProt P02751 610-1266, limits assumed).
T6 construct: domain: FNIII1-7; This construct is not described separately
Description: equilibrium and kinetic binding.

A further assay has as its target T7, FNIII3-6 (human, UniProt P02751 813-1175, limits assumed).
T7 construct: domain: FNIII3-6; Recombinant; also called FNII3-6 [sic]
Description: equilibrium and kinetic binding.

Assay [6] has as its target T8, FNIII12-15 (H), heparinII-binding domain of fibronectin (human, UniProt P02751-10 1631-1987).
T8 construct: domain: FNIII12-15; Recombinant
Description: binding to FN functional domains.

A further assay has as its target T9, FNIII12-14 (human, UniProt P02751 1812-2082).
T9 construct: domain: FNIII12-14; Recombinant
Nature of the assay: binding to FN functional domains.

Assay [7] has as its target B3. Nature of the assay: binding to FN functional domains.
The target in the next assay is T10, FNIII1-11 (human, UniProt P02751-8 610-1630).
T10 construct: domain: FNIII1-11; Recombinant
Description: binding to FN functional domains.

Another assay concerns the target T11, FNIII1-2 (human, UniProt P02751 610-812, limits assumed).
T11 construct: domain: FNIII1-2; Recombinant
Description: binding to FN functional domains.

A further assay addresses T12, FNIII1 (human, UniProt P02751 610-702, limits assumed).
T12 construct: domain: FNIII1; Recombinant; also called FNIIII [sic]
Description: binding to FN functional domains.

The target of the next assay is T13, FNIII2 (human, UniProt P02751 722-812, limits assumed).
T13 construct: domain: FNIII2; Recombinant
Nature of the assay: binding to FN functional domains.

For assay [8], the target named is T2, intact human plasma fibronectin (FN). Nature of the assay: equilibrium binding to FN adsorbed to a surface or coupled to agarose beads.
Assay [9] addresses T1, basic fibroblast growth factor (bFGF, …). Nature of the assay: method not restated in the sentence.
Assay [10] shares this target. Nature of the assay: equilibrium or kinetic binding, not said which.
Assay [11] has as its target T2, intact human plasma fibronectin (FN). Nature of the assay: competition: I-125 PDGF-BB bound to intact human plasma FN adsorbed on plastic (0.125 µM, blocked with 2% BSA), 25°C, 2 h, with rising peptide; % of binding without peptide, n=3 [right panel]. As for the experimental part: as §1, §2

T1 sequence (P09038 143-288 limits assumed): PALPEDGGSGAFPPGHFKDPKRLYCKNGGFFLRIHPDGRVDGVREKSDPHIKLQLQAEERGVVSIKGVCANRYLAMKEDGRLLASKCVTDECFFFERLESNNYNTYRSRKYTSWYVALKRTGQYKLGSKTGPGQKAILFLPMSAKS
T2 sequence (P02751 other isoform, or with tags, fused parts or gaps limits assumed): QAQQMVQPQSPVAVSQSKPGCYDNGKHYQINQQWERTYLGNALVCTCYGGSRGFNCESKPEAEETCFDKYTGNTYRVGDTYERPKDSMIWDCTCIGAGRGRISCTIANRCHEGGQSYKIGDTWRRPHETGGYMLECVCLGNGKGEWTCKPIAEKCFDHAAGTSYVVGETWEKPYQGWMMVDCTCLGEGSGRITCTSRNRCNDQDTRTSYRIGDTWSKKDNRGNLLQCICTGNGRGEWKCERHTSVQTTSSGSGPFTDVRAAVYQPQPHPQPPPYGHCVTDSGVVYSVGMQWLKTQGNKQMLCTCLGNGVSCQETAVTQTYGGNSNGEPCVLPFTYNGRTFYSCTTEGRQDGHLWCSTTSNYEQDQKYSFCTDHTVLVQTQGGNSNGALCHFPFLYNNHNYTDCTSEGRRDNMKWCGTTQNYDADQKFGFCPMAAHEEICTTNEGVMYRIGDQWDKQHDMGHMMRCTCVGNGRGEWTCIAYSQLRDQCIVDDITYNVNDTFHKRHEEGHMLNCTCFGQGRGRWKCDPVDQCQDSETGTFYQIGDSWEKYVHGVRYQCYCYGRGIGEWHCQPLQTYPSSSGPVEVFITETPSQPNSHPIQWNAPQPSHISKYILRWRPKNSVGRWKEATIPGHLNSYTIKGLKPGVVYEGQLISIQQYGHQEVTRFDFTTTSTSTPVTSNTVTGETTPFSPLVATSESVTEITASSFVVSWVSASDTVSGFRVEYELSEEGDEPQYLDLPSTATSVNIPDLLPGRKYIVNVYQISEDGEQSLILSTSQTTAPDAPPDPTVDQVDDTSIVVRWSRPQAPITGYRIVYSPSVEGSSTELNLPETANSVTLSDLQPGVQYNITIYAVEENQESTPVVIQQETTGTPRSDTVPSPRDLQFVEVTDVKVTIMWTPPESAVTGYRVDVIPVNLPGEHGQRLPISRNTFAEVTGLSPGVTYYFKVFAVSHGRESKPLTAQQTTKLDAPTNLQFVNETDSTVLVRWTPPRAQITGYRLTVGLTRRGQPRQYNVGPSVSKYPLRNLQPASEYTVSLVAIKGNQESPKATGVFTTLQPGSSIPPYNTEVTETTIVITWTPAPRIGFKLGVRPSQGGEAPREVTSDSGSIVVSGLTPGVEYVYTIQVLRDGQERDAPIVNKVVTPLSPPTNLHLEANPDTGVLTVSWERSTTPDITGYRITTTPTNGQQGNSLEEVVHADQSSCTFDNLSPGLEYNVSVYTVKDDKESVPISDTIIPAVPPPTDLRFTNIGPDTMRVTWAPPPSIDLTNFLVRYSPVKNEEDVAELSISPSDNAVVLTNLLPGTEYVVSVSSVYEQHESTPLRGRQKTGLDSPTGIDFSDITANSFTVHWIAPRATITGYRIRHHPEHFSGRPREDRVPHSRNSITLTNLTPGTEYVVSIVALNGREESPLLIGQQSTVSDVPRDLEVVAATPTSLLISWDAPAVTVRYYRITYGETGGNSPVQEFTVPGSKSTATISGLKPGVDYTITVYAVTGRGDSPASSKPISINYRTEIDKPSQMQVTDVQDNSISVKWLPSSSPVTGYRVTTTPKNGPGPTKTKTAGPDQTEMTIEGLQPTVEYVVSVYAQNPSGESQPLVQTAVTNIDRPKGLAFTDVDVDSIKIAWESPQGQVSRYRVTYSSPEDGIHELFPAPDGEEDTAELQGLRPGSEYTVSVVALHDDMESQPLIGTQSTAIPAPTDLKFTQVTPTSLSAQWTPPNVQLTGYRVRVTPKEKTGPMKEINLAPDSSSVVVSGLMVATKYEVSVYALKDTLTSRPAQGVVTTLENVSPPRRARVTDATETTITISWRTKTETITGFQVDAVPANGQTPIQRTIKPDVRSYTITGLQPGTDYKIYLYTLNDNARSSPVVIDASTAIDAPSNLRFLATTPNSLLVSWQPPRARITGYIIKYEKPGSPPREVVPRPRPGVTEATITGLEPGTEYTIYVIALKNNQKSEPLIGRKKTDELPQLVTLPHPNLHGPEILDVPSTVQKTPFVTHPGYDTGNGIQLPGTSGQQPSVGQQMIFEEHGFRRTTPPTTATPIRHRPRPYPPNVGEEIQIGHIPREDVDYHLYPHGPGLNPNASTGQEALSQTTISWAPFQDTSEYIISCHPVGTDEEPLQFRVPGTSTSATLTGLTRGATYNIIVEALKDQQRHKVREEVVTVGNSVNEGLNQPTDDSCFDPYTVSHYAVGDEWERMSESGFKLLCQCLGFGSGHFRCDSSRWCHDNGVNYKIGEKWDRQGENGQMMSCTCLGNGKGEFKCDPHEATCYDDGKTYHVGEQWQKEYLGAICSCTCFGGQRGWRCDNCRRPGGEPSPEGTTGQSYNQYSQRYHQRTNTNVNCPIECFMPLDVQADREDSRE
Sequence of FGF-1 (P05230 16-155 limits assumed): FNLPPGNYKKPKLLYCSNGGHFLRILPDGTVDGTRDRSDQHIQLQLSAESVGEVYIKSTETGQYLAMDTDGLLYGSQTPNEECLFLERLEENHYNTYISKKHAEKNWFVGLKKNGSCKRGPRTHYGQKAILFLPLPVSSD
Sequence of TGF-α (P01135 40-89 limits assumed): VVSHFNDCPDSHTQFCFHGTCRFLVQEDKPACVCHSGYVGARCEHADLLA
T4 sequence (P02751 32-608 limits assumed): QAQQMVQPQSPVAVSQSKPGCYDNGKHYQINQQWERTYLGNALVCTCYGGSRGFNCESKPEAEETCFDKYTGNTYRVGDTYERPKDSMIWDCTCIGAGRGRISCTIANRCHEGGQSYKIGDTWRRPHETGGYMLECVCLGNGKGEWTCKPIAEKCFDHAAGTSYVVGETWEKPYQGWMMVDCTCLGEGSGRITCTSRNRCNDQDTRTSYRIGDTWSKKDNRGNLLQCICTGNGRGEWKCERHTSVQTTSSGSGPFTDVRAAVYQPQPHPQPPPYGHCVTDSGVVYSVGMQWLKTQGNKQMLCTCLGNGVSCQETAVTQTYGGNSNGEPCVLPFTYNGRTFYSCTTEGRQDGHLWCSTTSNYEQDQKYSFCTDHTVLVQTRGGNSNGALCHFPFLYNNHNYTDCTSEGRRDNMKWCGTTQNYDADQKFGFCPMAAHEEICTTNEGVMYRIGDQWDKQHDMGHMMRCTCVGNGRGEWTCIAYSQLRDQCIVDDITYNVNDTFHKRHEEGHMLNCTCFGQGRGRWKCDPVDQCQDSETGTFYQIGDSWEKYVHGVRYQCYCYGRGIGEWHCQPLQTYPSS
T12 sequence (P02751 other isoform, or with tags, fused parts or gaps limits assumed): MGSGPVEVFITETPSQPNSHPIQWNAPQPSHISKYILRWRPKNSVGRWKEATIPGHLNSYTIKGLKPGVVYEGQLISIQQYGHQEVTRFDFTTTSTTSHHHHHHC
T10 sequence (P02751 other isoform, or with tags, fused parts or gaps limits assumed): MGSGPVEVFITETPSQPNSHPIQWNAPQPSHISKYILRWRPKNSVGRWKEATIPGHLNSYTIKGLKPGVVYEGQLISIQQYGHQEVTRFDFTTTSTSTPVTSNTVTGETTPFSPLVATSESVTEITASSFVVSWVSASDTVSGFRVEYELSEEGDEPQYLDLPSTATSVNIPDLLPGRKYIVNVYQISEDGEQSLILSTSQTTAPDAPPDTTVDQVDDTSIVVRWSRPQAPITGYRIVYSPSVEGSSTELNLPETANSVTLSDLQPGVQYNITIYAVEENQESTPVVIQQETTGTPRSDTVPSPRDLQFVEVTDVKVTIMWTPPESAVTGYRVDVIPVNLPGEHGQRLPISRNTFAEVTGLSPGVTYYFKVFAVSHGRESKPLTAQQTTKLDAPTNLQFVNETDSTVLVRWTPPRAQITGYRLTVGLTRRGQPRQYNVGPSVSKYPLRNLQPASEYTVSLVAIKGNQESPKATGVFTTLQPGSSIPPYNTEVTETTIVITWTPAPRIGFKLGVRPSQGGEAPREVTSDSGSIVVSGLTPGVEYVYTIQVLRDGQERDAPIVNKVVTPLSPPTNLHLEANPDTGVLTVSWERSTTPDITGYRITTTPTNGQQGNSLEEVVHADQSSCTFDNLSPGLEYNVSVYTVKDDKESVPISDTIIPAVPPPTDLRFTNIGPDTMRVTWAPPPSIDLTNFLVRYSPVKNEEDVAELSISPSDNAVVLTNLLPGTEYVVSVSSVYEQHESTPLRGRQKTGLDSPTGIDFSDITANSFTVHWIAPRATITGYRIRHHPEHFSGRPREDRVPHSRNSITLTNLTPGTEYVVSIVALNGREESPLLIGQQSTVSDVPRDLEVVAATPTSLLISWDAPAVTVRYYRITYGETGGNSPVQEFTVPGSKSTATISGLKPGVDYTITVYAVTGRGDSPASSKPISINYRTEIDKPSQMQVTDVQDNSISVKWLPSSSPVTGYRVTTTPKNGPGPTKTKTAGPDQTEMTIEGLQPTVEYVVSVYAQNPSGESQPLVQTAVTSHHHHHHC
T8 sequence (P02751 other isoform, or with tags, fused parts or gaps limits assumed): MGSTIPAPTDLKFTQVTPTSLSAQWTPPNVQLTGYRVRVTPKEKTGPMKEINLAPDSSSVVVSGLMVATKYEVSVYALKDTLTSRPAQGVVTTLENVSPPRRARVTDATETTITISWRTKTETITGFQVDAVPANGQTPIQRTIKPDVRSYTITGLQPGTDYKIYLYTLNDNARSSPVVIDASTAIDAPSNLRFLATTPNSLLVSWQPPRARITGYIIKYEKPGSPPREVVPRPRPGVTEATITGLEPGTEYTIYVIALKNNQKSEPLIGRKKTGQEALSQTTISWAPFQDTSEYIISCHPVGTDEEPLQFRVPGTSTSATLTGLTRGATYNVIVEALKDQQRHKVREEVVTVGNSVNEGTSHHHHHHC
T13 sequence (P02751 other isoform, or with tags, fused parts or gaps limits assumed): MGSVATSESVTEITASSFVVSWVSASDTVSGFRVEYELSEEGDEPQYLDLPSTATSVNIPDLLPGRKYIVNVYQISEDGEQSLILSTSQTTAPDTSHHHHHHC

On to QLISIQQYGHQEVTRFDFTTTSTST (also called P2) [peptide 2 (FN680-704) QLISIQQYGHQEVTRFDFTTTSTST], for which the binding result in assay [1] was “binds”; with EGF, “no binding”; with TGF-α it was “no binding”; with FGF-1, “no binding”.
On to QPSVGQQMIFEEHGFRRTTPPTTAT (also called P4) [peptide 4 (FN2043-2067) QPSVGQQMIFEEHGFRRTTPPTTAT], for which the binding result in [1] is reported as “binds”; with EGF it was “no binding”; with TGF-α, “no binding”; with FGF-1, “no binding”.
For CCVRQLYIDFRKDLG [synthetic peptide homologous to TGF-β1, CCVRQLYIDFRKDLG], the “IC50 (read off the curve)” value in assay [2] was ~8000 nM.

B1: peptide 1 (FN634-658) QPSHISKYILRWRPKNSVGRWKEAT (peptide)
peptide: QPSHISKYILRWRPKNSVGRWKEAT
notes: A Cys-tagged form was used in the FN-null cell assay; also called P1
With B1, the binding result in assay [1] is reported as “binds”; with EGF it was “no binding”; with TGF-α, “no binding”; with FGF-1, “no binding”.
As for B2, the binding result (in assay [3]; in assay [4]; in assay [5]; with FNIII1-7; with FNIII3-6; in assay [6]) was “no binding” in each case. For the same molecule, the binding result (with FNIII12-14; in assay [7]; with FNIII1-11; in the assay with FNIII1-2; with FNIII1; with FNIII2) was “no binding” throughout. In [8], the binding result is reported as “no binding”.
Regarding B3, in the assay with FGF-1, the binding result is reported as “no binding”. Moreover, the results for the dissociation constant (Kd) in assay [9] and in assay [10] were ~100 nM and 58 nM, respectively.

B4: peptide 3 NGQTPIQRTIKPDVRSYTITGLQPGT (peptide)
peptide: NGQTPIQRTIKPDVRSYTITGLQPGT
notes: also called P3; FN1852-877 (so in the source)
With B4, the binding result is “binds” in [1], “no binding” in the assay with EGF, “no binding” in the assay with TGF-α and “no binding” with FGF-1.
Turning to CKTRTEVFEISRRLI [synthetic peptide homologous to PDGF-BB, CKTRTEVFEISRRLI], the binding result in [11] is reported as “binds”.
